Patent publication US12576141B2 (AlbuNext, LLC, priority 2023, dated 2026)

How the values were obtained:
[1] = monotherapy, cited from earlier work
GLP-1 receptor = GLP-1 receptor (Homo sapiens, UniProt P43220); details: cited from earlier work
[2] = suitable for once weekly dosing; cited from earlier work
Cys34 of rat albumin = target: T1, Cys34 of rat albumin (Rattus norvegicus, UniProt P02770); test: electrophoresis of plasma samples from injected rats (translocation to rat albumin); format: in vivo
T1 construct: plasma samples collected from the rats that were injected s.c. and i.v; from tissue; host or cells: rat plasma (in vivo, circulating albumin)
Experimental: To further investigate the apparent inconsistencies supplementary electrophoresis experiments were conducted on the plasma samples collected from the rats that were injected s.c. and i.v. as noted above, and exemplary results are depicted in FIG. 30. As can be readily seen in the gel image, when conformationally unmodified AB-013 is tested in an electrophoresis experiment only one band is observed in the area where an albumin-exendin-4 MPA covalent construct would be observed. Completely unexpectedly, all time points taken during the experiment, including the earliest ones, had two bands in the area related to an albumin-exendin-4 MPA covalent construct.
This initial observation was further supported when a dynorphin-A-MPA peptide was injected intravenously to rats. Importantly, this dynorphin-A-MPA peptide was not conjugated to human albumin or any other type of albumin. […] In a similar fashion, the dynorphin-A-MPA peptide was also conjugated to human conformationally unmodified albumin in vitro to form a covalent bond between it and the Cys34 of human albumin. The dynorphin a human albumin covalent construct was injected intravenously to rats.

T1 sequence (P02770 25-608): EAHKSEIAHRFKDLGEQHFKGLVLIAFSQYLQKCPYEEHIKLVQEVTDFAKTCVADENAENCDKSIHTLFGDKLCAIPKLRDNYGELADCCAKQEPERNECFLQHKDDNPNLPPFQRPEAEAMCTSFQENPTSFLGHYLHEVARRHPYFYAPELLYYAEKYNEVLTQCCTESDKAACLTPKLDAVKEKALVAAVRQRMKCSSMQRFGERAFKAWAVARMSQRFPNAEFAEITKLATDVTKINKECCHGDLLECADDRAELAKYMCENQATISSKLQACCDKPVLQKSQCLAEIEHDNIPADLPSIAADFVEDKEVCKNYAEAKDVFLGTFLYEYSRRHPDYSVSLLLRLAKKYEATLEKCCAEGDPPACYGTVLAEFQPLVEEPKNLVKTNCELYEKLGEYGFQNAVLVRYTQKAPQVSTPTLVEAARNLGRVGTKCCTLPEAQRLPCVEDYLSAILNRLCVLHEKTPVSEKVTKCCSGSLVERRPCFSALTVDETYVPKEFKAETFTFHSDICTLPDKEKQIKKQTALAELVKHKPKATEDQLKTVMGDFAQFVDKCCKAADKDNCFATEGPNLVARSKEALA
Chain of GLP-1 receptor (P43220 24-463, species assumed): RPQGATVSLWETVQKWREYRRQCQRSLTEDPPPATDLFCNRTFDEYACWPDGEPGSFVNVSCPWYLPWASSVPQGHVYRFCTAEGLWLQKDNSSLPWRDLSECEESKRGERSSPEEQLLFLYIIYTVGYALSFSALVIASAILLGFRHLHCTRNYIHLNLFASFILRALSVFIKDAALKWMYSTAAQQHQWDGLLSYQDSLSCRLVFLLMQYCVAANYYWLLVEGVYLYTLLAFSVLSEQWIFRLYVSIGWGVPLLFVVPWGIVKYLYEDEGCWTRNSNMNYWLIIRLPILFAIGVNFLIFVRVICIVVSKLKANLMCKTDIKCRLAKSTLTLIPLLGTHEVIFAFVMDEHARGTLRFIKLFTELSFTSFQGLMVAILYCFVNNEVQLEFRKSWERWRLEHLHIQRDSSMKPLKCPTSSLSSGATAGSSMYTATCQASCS

Row | Substance | decrease in HbA1c from baseline ([1]; 30 mg weekly dose, week 52) | change from baseline of HbA1c ([1]; 50 mg weekly dose) | GLP-1 receptor affinity (GLP-1 receptor) | half-life [2] | bands on electrophoresis gel in the area of the albumin covalent construct (Cys34 of rat albumin; rat plasma, all time points) | bioconjugation in vivo with rat albumin (Cys34 of rat albumin; rats, intravenous, peptide not conjugated to albumin)
1 | albiglutide: albumin fusion protein in which a tandem repeat of Gly8 GLP-1 is fused to N-terminus of human serum albumin | −0.7% | −0.9% | 20 nM | 140 to 190 h | – | –
2 | dynorphin-A-MPA peptide: dynorphin-A-MPA peptide not conjugated to any albumin, injected for in vivo bioconjugation | – | – | – | – | only one band | did indeed occur
